# Measurements reported in US20120201781A1 (AbbVie / Abbott, published 2012).
# T1: recombinant human IL-1α (human, UniProt P01583 113-271)
# T1 construct: Purified recombinant protein bought from R&D Systems; also called hIL-1α; rhIL-1α
# T1 sequence: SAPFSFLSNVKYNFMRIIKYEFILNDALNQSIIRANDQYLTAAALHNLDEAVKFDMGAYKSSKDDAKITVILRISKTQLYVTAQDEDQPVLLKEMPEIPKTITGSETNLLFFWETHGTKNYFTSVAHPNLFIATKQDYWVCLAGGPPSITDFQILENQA
# B1: murine monoclonal antibody 1B12.4H4 (antibody, V domains shown)
# VH: QVHLKESGPGLVAPSQSLSITCTVSGFSLTDYGVSWIRQPPGKGLEWLGLIWGGGDTYYNSPLKSRLSIRKDNSKSQVFLKMNSLQTDDTAVYYCAKQRTLWGYDLYGMDYWGQGTSVTVSS
# VL: ETTVTQSPASLSMAIGEKVTIRCITSTDIDVDMNWYQQKPGEPPKLLISQGNTLRPGVPSRFSSSGSGTDFVFIIENMLSEDVADYYCLQSDNLPLTFGAGTKLELKR
# notes: Murine hybridoma mAb, anti-hIL-1β
# B2: murine monoclonal antibody 6B12.4F6 (antibody, V domains shown)
# VH: EVQLQQSGPELVKTGTSVKISCKASGYSFTGYYMHWVRQSHGKSLEWIGYISCYNGFTSYNPKFKGKATFTVDTSSSTAYIQFSRLTSEDSAVYYCARSDYYGTNDYWGQGTTLTVSS
# VL: QIVLTQSPAIMSASPGEKVTITCSASSSVSYMHWFQQKPGASPKLWIYSTSNLASGVPARFSGSGSGTSYSLTVSRMEAEDAATYYCQQRSTYPYTFGGGTKLEIKR
# notes: as for B1
# B3: hIL-1α/β DVD3a-Ig (bispecific antibody, human IgG1, kappa)
# heavy: not shown
# light: DIVMTQSQRFMSTSVGDRVSVTCKASQNVGTNIAWYQQKPGQSPRALIYSASYRYSGVPDRFTGSGSGTDFTLTISNVQSVDLAEYFCQQYTRYPLTFGGGTKLEIKRTVAAPETTVTQSPASLSMAIGEKVTIRCITSTDIDVDMNWYQQKPGEPPKLLISQGNTLRPGVPSRFSSSGSGTDFVFIIENMLSEDVADYYCLQSDNLPLTFGAGTKLELKRRTVAAPSVFIFPPSDEQLKSGTASVVCLLNNFYPREAKVQWKVDNALQSGNSQESVTEQDSKDSTYSLSSTLTLSKADYEKHKVYACEVTHQGLSSPVTKSFNRGEC
# notes: 18F4.2C8 (outer) - short linker - 1B12.4H4 (inner), a-b-C orientation
# B4: hIL-1α/β DVD5a-Ig (bispecific antibody, human IgG1, kappa)
# heavy: not shown
# light: QIVLTQSPALMSASPGEKVTMTCSASSSVNYMYWYQQKPRSSPKPWIYLTSNLASGVPARFSGSGSGTSYSLTISSMEAEDAATYYCQQWNSNPYTFGGGTKLEMKRTVAAPQIVLTQSPAIMSASPGEKVTITCSASSSVSYMHWFQQKPGASPKLWIYSTSNLASGVPARFSGSGSGTSYSLTVSRMEAEDAATYYCQQRSTYPYTFGGGTKLEIKRTVAAPSVFIFPPSDEQLKSGTASVVCLLNNFYPREAKVQWKVDNALQSGNSQESVTEQDSKDSTYSLSSTLTLSKADYEKHKVYACEVTHQGLSSPVTKSFNRGEC
# notes: 6H3.1A4.3E11 (outer) - short linker - 6B12.4F6 (inner), a-b-C orientation
# B5: hIL-1α/β DVD6a-Ig (bispecific antibody, human IgG1, kappa)
# heavy: not shown
# light: QIVLTQSPALMSASPGEKVTMTCSASSSVNYMYWYQQKPRSSPKPWIYLTSNLASGVPARFSGSGSGTSYSLTISSMEAEDAATYYCQQWNSNPYTFGGGTKLEMKRTVAAPSVFIFPPQIVLTQSPAIMSASPGEKVTITCSASSSVSYMHWFQQKPGASPKLWIYSTSNLASGVPARFSGSGSGTSYSLTVSRMEAEDAATYYCQQRSTYPYTFGGGTKLEIKRRTVAAPSVFIFPPSDEQLKSGTASVVCLLNNFYPREAKVQWKVDNALQSGNSQESVTEQDSKDSTYSLSSTLTLSKADYEKHKVYACEVTHQGLSSPVTKSFNRGEC
# notes: 6H3.1A4.3E11 (outer) - long linker - 6B12.4F6 (inner), a-b-C orientation
# B6: hIL-1α/β DVD4b-Ig (bispecific antibody, human IgG1, kappa)
# heavy: not shown
# light: ETTVTQSPASLSMAIGEKVTIRCITSTDIDVDMNWYQQKPGEPPKLLISQGNTLRPGVPSRFSSSGSGTDFVFIIENMLSEDVADYYCLQSDNLPLTFGAGTKLELKRTVAAPSVFIFPPDIVMTQSQRFMSTSVGDRVSVTCKASQNVGTNIAWYQQKPGQSPRALIYSASYRYSGVPDRFTGSGSGTDFTLTISNVQSVDLAEYFCQQYTRYPLTFGGGTKLEIKRTVAAPSVFIFPPSDEQLKSGTASVVCLLNNFYPREAKVQWKVDNALQSGNSQESVTEQDSKDSTYSLSSTLTLSKADYEKHKVYACEVTHQGLSSPVTKSFNRGEC
# notes: 1B12.4H4 (outer) - long linker - 18F4.2C8 (inner), b-a-C orientation
# B7: hIL-1α/β DVD3b-Ig (bispecific antibody, human IgG1, kappa)
# heavy: not shown
# light: ETTVTQSPASLSMAIGEKVTIRCITSTDIDVDMNWYQQKPGEPPKLLISQGNTLRPGVPSRFSSSGSGTDFVFIIENMLSEDVADYYCLQSDNLPLTFGAGTKLELKRTVAAPDIVMTQSQRFMSTSVGDRVSVTCKASQNVGTNIAWYQQKPGQSPRALIYSASYRYSGVPDRFTGSGSGTDFTLTISNVQSVDLAEYFCQQYTRYPLTFGGGTKLEIKRTVAAPSVFIFPPSDEQLKSGTASVVCLLNNFYPREAKVQWKVDNALQSGNSQESVTEQDSKDSTYSLSSTLTLSKADYEKHKVYACEVTHQGLSSPVTKSFNRGEC
# notes: 1B12.4H4 (outer) - short linker - 18F4.2C8 (inner), b-a-C orientation
# B8: hIL-1α/β DVD4a-Ig (bispecific antibody, human IgG1, kappa)
# heavy: not shown
# light: DIVMTQSQRFMSTSVGDRVSVTCKASQNVGTNIAWYQQKPGQSPRALIYSASYRYSGVPDRFTGSGSGTDFTLTISNVQSVDLAEYFCQQYTRYPLTFGGGTKLEIKRTVAAPSVFIFPPETTVTQSPASLSMAIGEKVTIRCITSTDIDVDMNWYQQKPGEPPKLLISQGNTLRPGVPSRFSSSGSGTDFVFIIENMLSEDVADYYCLQSDNLPLTFGAGTKLELKRTVAAPSVFIFPPSDEQLKSGTASVVCLLNNFYPREAKVQWKVDNALQSGNSQESVTEQDSKDSTYSLSSTLTLSKADYEKHKVYACEVTHQGLSSPVTKSFNRGEC
# notes: 18F4.2C8 (outer) - long linker - 1B12.4H4 (inner), a-b-C orientation
# B9: hIL-1α/β DVD5b-Ig (bispecific antibody, human IgG1, kappa)
# heavy: not shown
# light: QIVLTQSPAIMSASPGEKVTITCSASSSVSYMHWFQQKPGASPKLWIYSTSNLASGVPARFSGSGSGTSYSLTVSRMEAEDAATYYCQQRSTYPYTFGGGTKLEIKRTVAAPQIVLTQSPALMSASPGEKVTMTCSASSSVNYMYWYQQKPRSSPKPWIYLTSNLASGVPARFSGSGSGTSYSLTISSMEAEDAATYYCQQWNSNPYTFGGGTKLEMKRTVAAPSVFIFPPSDEQLKSGTASVVCLLNNFYPREAKVQWKVDNALQSGNSQESVTEQDSKDSTYSLSSTLTLSKADYEKHKVYACEVTHQGLSSPVTKSFNRGEC
# notes: 6B12.4F6 (outer) - short linker - 6H3.1A4.3E11 (inner), b-a-C orientation
# B10: hIL-1α/β DVD6b-Ig (bispecific antibody, human IgG1, kappa)
# heavy: not shown
# light: QIVLTQSPAIMSASPGEKVTITCSASSSVSYMHWFQQKPGASPKLWIYSTSNLASGVPARFSGSGSGTSYSLTVSRMEAEDAATYYCQQRSTYPYTFGGGTKLEIKRTVAAPSVFIFPPQIVLTQSPALMSASPGEKVTMTCSASSSVNYMYWYQQKPRSSPKPWIYLTSNLASGVPARFSGSGSGTSYSLTISSMEAEDAATYYCQQWNSNPYTFGGGTKLEMKRRTVAAPSVFIFPPSDEQLKSGTASVVCLLNNFYPREAKVQWKVDNALQSGNSQESVTEQDSKDSTYSLSSTLTLSKADYEKHKVYACEVTHQGLSSPVTKSFNRGEC
# notes: 6B12.4F6 (outer) - long linker - 6H3.1A4.3E11 (inner), b-a-C orientation
# Molecular target: T2, recombinant human IL-1β (human, UniProt P01584 117-269)
# T2 construct: Recombinant protein; also called hIL-1β; rhIL-1β
# Test: SPR (Biacore), mAb captured via goat anti-mouse IgG
row,Kd [pM],Binder
1,213,B1
2,554,B2

# Molecular target: T1, recombinant human IL-1α
# Test: SPR (Biacore)
row,Kd [pM],Binder
1,837,B3
2,508,B4
3,1060,B5
4,560,B6
5,1240,B7
6,701,B8
7,13200,B9
8,820,B10

# Molecular target: T2, recombinant human IL-1β
# Test: SPR (Biacore)
row,Kd [pM],Binder
1,63700,B3
2,12500,B4
3,2090,B5
4,261,B1
5,128,B6
6,190,B7
7,554,B2
8,930,B8
9,671,B9
10,697,B10

# Molecular target: T2, recombinant human IL-1β
# Test: cell-based or functional assay
row,"IC50 (M), MRC-5 bioassay (inhibition of IL-8 production) [M]",Binder
1,5.3e-10,B1
2,3.2e-10,B2

# Molecular target: T1, recombinant human IL-1α
# Test: cell-based or functional assay
row,"Potency (IC50) M, MRC-5 bioassay [pM]",Binder
1,750,B3
2,2600,B4
3,2300,B5
4,350,B6
5,700,B7
6,350,B8
7,3300,B9
8,1000,B10

# Molecular target: T2, recombinant human IL-1β
# Test: cell-based or functional assay
# Remark: another data set of the same source
"Potency (IC50) M, MRC-5 bioassay [pM]","IC50 (M), MRC-5 bioassay [M]",Binder
19000,–,B4
70000,–,B5
–,6e-10,B1
500,–,B6
400,–,B7
–,4e-10,B2
10000,–,B8
250,–,B9
750,–,B10
